According to patent US20100196398A1:

Target: human CD105 (human) (UniProt P17813)
Assay: FACS titration of FITC-labeled SN6 on HUVEC cells

Chain of human CD105 (human) (P17813 26-658): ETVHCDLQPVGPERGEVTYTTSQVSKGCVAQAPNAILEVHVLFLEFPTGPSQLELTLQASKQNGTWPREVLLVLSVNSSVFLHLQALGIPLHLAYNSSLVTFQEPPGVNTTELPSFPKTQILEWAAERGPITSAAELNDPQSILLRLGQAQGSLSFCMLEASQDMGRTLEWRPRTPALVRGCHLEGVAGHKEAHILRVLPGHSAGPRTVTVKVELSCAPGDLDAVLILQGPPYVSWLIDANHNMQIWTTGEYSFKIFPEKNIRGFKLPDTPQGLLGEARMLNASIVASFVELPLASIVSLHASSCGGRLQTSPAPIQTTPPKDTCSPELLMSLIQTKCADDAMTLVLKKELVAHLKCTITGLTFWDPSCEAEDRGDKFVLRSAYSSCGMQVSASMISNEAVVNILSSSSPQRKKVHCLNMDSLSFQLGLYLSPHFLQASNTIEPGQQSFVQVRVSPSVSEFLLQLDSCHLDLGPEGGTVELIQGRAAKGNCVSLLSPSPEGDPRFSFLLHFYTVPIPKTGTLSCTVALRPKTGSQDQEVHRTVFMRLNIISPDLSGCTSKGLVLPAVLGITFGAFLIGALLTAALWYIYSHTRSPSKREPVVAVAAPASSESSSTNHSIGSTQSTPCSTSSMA

- EC50: 2 µg/mL
Substance: SN6 antibody (Abcam)
